Results taken from doi:10.1101/659029.
Positions count from the first letter of the chain named.

B1: substrate-1 (RNA-1/Cy5 DNA) (DNA:RNA)
RNA: GGCACCAACACAAAACACAUCUACACUCAACAAU
DNA: GTAGATGTGTTTTGTGTTGGTGCC
B2: substrate-4 (RNA-4/Cy5 DNA) (mixed)
DNA 1: GGCACCAACACAAAACACATCTACACUCAACAAUCACUUU
DNA 2: GTAGATGTGTTTTGTGTTGGTGCC
modifications: strand 1 RNA with DNA at nt 17-24 (duplex end proximal to overhang)
B3: substrate-5 (RNA-5/Cy5 DNA) (mixed)
RNA: B2 DNA 1 with T20U, T22U
DNA: GTAGATGTGTTTTGTGTTGGTGCC
modifications: strand 1 RNA with DNA at nt 9-16 (middle of duplex)

target: Prp43p;Ntr1p (1-120) (Saccharomyces cerevisiae (budding …, UniProt P53131;Q06411 1-767;1-120, |)); assay: EMSA
Sequence (P53131 whole entry, chain 1 of 2): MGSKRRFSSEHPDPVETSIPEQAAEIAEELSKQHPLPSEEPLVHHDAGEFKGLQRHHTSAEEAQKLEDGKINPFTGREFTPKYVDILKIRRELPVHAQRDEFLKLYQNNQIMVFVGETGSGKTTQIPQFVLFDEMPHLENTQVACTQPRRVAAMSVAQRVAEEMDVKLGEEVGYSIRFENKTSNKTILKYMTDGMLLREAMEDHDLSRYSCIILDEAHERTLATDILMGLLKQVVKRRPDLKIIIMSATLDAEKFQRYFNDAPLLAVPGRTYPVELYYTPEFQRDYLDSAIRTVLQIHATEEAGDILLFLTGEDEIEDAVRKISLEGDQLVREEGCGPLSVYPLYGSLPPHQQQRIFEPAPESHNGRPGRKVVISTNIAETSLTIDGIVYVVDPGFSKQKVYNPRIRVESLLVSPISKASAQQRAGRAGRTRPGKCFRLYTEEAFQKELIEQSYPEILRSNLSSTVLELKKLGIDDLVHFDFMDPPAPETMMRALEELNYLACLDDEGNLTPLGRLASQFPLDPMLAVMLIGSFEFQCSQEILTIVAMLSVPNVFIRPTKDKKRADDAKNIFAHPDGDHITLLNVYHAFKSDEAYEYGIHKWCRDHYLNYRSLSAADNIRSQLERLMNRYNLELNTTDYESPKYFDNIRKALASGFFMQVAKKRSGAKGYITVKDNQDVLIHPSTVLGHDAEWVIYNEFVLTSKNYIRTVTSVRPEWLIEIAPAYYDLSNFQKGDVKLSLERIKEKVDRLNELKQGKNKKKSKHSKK
Sequence (Q06411 1-120, chain 2 of 2): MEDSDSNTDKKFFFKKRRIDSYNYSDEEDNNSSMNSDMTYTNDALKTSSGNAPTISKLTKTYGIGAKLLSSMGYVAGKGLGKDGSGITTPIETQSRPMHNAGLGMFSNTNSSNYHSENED

Binding result, binds:
B1
B2
B3
